Columns and labels:
[1] = molecular target: T1, human insulin receptor (IR) on human IM-9 cells (human, UniProt P06213 28-1382); test: competition with biotinylated RHI on IM-9 cells, flow cytometry, 4 C; material purified by Protein G
T1 construct: whole, on cells; also called human IR
Method: (§1) 40 µL of an IM-9 cell suspension (8×10⁶ cells/mL) was then added to each well by multichannel pipette, mixed again gently and incubated on ice for 30 min to allow competitive binding on the IR on IM-9 cells. Cells were then washed twice with 275µL of ice-cold FACS wash buffer (HBSS/2mM EDTA/0.1% Na-azide + 0.5% horse serum) by centrifuging the V-bottom plate at 3000 rpm for 3 min and aspirating the supernatant. Cells were then resuspended in 40µL of FACS staining medium containing 1:100 diluted Streptavidin-PE (Life Technologies) for 20 min on ice. Cells were then washed once with 275 µL of ice-cold FACS buffer and finally fixed with 3% paraformaldehyde for 10 min at room temp. Cells were then washed once with 275 µL of ice-cold FACS buffer and resuspended in 250µl of FACS buffer for analysis.
(§2) The insulin-Fc fusion proteins were manufactured in HEK293 cells according to Example 1 and purified using a Protein A or Protein G columns according to Example 4. […] Their %homodimer content was measured by size-exclusion chromatography according to Example 10, and their insulin receptor binding affinities were measured according to Example 12. Additionally, the insulin-Fc fusion protein affinities for the canine FcRn receptor were measured according to Example 15.

[2] = molecular target: T1, human insulin receptor (IR) on human …; test: competition with biotinylated RHI on IM-9 cells, flow cytometry, 4 C
[3] = molecular target: T2, biotinylated recombinant human Fc(gamma)RI (human, UniProt P12314 16-288, biotinylated, site not stated); test: ELISA, fusion protein coated, biotinylated rhFc(gamma)RI at 3000 ng/mL
T2 construct: Bought reagent; construct not described; also called rhFc(gamma)RI; Fc(gamma) receptor I
T2 sequence (P12314 16-288 limits assumed): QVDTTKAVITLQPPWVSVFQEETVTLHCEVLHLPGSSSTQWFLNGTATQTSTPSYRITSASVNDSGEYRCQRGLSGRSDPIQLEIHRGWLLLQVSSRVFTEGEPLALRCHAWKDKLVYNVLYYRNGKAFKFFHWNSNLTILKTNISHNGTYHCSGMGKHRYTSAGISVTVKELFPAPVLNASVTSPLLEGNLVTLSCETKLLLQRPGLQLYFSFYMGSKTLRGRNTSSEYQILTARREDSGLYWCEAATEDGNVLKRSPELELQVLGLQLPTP
Method: The binding of insulin-Fc fusion proteins to the Fc(gamma)RI at pH 7.4 is conducted using an ELISA assay as follows using human Fc(gamma)RI (i.e., rhFc(gamma)RI). Insulin-Fc fusion proteins are diluted to 10 µg/mL in sodium bicarbonate buffer at pH 9.6 and coated on Maxisorp (Nunc) microtiter plates overnight at 4° C., after which the microplate strips are washed 5 times with PBST (PBS/0.05% Tween-20) buffer and blocked with Superblock blocking reagent (ThermoFisher). Serial dilutions of biotinylated rhFc(gamma)RI (recombinant human Fc(gamma)RI; R&D Systems) are prepared in PBST/10% Superblock buffer from 3000 ng/mL to 4.1 ng/mL and loaded at 100 µL/well onto the microplate strips coated with insulin-Fc fusion protein. The microtiter plate is incubated for 1 hour at room temperature after which time the microplate strips are washed 5 times with PBST and then loaded with 100 µL/well of streptavidin-HRP diluted 1:10000 in PBST/10% Superblock buffer. After incubating for 45 min, the microplate strips are washed again 5 times with PBST. TMB is added to reveal the bound Fc(gamma)RI proteins and is stopped with ELISA stop reagent (Boston Bioproducts). The plate is read in an ELISA plate reader at 450 nm, and the OD450 values (proportional to the binding of rhFc(gamma)RI to insulin-Fc protein) are plotted against log concentrations of rhFc(gamma)RI added to each well to generate binding curves using GraphPad Prism software. For groupings of compounds with somewhat similar curves, the OD450 at one of the higher concentrations, for instance at rhFc(gamma)RI concentrations of 3000 ng/mL, can be used to identify differences between coated insulin-Fc fusion protein compounds. […]
Finally, select compounds were tested for their likelihood to interact with the immune system by measuring their Fc(gamma) receptor binding activity according to the procedure of Example 15.

[4] = molecular target: T3, biotinylated canine FcRn (canine, UniProt A0A8I3PFR8 25-347, biotinylated, site not stated); test: FcRn ELISA; species of FcRn not given, taken as canine
T3 sequence (A0A8I3PFR8 entry or part of it): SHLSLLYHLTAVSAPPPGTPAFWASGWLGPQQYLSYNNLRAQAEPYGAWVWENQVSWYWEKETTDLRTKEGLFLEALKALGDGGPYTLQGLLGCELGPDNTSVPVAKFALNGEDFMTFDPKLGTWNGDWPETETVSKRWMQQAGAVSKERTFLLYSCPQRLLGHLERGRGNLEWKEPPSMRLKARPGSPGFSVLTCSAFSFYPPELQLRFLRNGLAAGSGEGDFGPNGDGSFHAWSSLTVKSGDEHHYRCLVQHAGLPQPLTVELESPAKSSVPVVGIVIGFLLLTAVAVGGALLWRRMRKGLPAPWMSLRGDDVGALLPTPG
Method: (§3) Insulin-Fc fusion proteins comprising Fc fragments of canine origin were diluted to 10 µg/ml in sodium bicarbonate pH 9.6 buffer and coated in duplicate on Maxisorb ELISA plate strips for 1-2 hours at RT. The strips were then washed 4 times with PBST (PBS/0.1% Tween-20) buffer and blocked with Superblock blocking reagent (ThermoFisher). Strips for FcRn binding were then washed again twice with pH 5.5 MES/NaCl/Tween (50 mM MES/150mM NaCl/0.1% Tween-20) buffer before addition of the FcRn reagent (biotinylated canine FcRn; Immunitrack). Serial dilutions (1:3X dilutions) of biotinylated FcRn reagent were prepared in pH 5.5 MES/NaCl/Tween/10%Superblock buffer at concentrations from 1000 ng/ml to 0.45 ng/mL and loaded at 100 µL/well using a multichannel pipettor onto the strips coated with the insulin-Fc fusion protein compounds. The assay plate was then incubated for 1 hour at room temperature. FcRn binding strips were washed 4 times with pH 5.5 MES/NaCl/Tween buffer and then loaded with 100 µl/well streptavidin-HRP diluted 1:10000 in pH 5.5 MES/NaCl /10%Superblock buffer. After incubating for 45 minutes, strips were washed again 4 times with pH 5.5 MES/NaCl/Tween buffer. […] The plate was read in an ELISA plate reader at a wavelength of 450 nm. […] EC50 values for each binding curve were calculated to compare between different compounds.

[5] = molecular target: T3, biotinylated canine FcRn; test: ELISA pH 5.5, fusion protein coated, biotinylated canine FcRn titrated
Method: as §3

[6] = molecular target: T1, human insulin receptor (IR) on human …; test: competition with biotinylated RHI on IM-9 cells, flow cytometry, 4 C; material purified via Protein A
Method: as §1, §2

T1 sequence (P06213 28-1382): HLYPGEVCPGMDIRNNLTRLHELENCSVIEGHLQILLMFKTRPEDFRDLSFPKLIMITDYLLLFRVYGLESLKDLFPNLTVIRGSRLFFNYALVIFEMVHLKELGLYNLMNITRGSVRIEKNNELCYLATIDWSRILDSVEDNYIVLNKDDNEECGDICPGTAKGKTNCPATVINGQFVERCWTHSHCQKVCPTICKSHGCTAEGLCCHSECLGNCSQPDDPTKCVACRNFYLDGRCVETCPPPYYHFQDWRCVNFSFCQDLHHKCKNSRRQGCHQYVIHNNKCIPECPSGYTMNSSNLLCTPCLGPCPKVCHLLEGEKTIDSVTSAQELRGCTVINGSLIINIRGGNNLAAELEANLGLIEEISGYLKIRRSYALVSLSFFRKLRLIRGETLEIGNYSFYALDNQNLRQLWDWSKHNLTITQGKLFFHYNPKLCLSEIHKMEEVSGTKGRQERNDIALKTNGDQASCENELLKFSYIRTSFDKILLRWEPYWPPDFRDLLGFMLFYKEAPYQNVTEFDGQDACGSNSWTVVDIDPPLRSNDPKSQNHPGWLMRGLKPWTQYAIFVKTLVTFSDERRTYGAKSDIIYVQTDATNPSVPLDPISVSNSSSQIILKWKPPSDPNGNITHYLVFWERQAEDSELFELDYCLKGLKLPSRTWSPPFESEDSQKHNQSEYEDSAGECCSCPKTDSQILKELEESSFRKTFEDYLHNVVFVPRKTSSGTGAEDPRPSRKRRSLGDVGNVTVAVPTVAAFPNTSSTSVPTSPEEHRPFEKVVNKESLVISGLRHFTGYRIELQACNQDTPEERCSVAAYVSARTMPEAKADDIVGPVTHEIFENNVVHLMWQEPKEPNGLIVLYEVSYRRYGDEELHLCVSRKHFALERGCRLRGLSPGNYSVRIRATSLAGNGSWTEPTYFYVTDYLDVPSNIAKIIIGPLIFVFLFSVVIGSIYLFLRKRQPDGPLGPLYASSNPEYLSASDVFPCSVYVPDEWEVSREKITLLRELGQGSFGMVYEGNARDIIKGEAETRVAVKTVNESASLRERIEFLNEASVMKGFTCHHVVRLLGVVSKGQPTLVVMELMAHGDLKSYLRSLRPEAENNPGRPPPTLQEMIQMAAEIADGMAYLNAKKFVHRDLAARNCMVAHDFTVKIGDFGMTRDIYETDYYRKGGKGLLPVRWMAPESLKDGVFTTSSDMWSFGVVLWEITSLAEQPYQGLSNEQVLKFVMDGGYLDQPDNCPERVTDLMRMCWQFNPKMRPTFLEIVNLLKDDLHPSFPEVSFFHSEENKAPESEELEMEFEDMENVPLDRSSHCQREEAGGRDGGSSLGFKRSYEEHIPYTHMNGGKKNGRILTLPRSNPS

Binder | IC50 [1] [nM] | IC50 [2] [nM] | OD450nm [3] | OD450nm minus assay background [3] | ratio to SEQ ID NO: 36 [3] | EC50 [4] [µg/mL] | EC50 [5] [µg/mL] | IC50 [6] [nM]
insulin-Fc fusion protein of SEQ ID NO: 59 (Fc fusion, purified by Protein G) FVNQHLCGSHLVEALELVCGERGFHYGGGGGGSGGGGGIVEQCCTSTCSLDQLENYCGGGGGQGGGGQGGGGQGGGGGCNNCPCPGCGLLGGPSVFIFPPKPKDILVTARTPTVTCVVVDLDPENPEVQISWFVDSKQVQTANTQPREEQSNGTYRVVSVLPIGHQDWLSGKQFKCKVNNKALPSPIEEIISKTPGQAHQPNVYVLPPSRDEMSKNTVTLTCLVKDFFPPEIDVEWQSNGQQEPESKYRMTPPQLDEDGSYFLYSKLSVDKSRWQRGDTFICAVMHEALHNHYTQISLSHSPG | 2080 |  |  |  |  |  |  | 
insulin-Fc fusion protein of SEQ ID NO: 30 (Fc fusion) FVNQHLCGSHLVEALALVCGERGFHYGGGGGGSGGGGGIVEQCCTSTCSLDQLENYCGGGGGQGGGGQGGGGQGGGGGDCPKCPAPEMLGGPSVFIFPPKPKDTLLIARTPEVTCVVVDLDPEDPEVQISWFVDGKQMQTAKTQPREEQFSGTYRVVSVLPIGHQDWLKGKQFTCKVNNKALPSPIERTISKARGQAHQPSVYVLPPSREELSKNTVSLTCLIKDFFPPDIDVEWQSNGQQEPESKYRTTPPQLDEDGSYFLYSKLSVDKSRWQRGDTFICAVMHEALHNHYTQESLSHSPG |  | 2040 | 0.177 | 0.12 | 0.32 | 1.19 |  | 
insulin-Fc fusion protein of SEQ ID NO: 58 (Fc fusion, purified by Protein A or Protein G) FVNQHLCGSHLVEALELVCGERGFHYGGGGGGSGGGGGIVEQCCTSTCSLDQLENYCGGGGGQGGGGQGGGGQGGGGGRCTDTPPCPVPEPLGGPSVLIFPPKPKDILRITRTPEVTCVVLDLGREDPEVQISWFVDGKEVHTAKTQSREQQFNGTYRVVSVLPIEHQDWLTGKEFKCRVNHIDLPSPIERTISKARGRAHKPSVYVLPPSPKELSSSDTVSITCLIKDFYPPDIDVEWQSNGQQEPERKHRMTPPQLDEDGSYFLYSKLSVDKSRWQQGDPFTCAVMHETLQNHYTDLSLSHSPG |  |  | 0.253 | 0.196 | 0.53 |  | 1.61 | 2590

From patent US20230250148A1 (published 2023)
